Data set [1] has as its target Glu36 (UniProt position 36, GVPQYEYLVAM). Briefly: IR (low-temperature light-induced difference FTIR). The conditions noted are these: 170 K, 2 mM sodium phosphate (pH 7.0) for washing liposomes.
The target in data set [2] is Asp217 (UniProt position 217, GFSFLDLHGLR). Briefly: IR (time-resolved FTIR, quoted from ref 74). The conditions noted are these: Unphotolysed ASR; the protonation state of Asp217 is inferred from whether it accepts a proton on M formation; cited from earlier work.

Take “Anabaena sensory rhodopsin (ASR) (Anabaena (Nostoc) sp. PCC 7120)”: the pKa result in data set [1] (buffers for pH 5 and 9 not stated, Dark-adapted ASR (97% all-trans retinal), unphotolysed state versus L intermediate formed by >580 nm illumination) is “between 6 and 7”; in data set [1] (not stated for pH 5 and 9, Dark-adapted ASR (predominantly all-trans), unphotolysed state bands in the L minus ASR difference spectrum), “about 7”.
For “Anabaena sensory rhodopsin (ASR), as studied by Shi et al. 2006 (Anabaena (Nostoc) sp. PCC 7120)”, in data set [2], the pKa entry is “between 6 and 7”.

Values taken from publication PMC3267196.
